Experimental data taken from US20240252670A1, “ANTIBODY DRUG CONJUGATE, PREPARATION METHOD THEREFOR AND APPLICATION THEREOF” (TSINGHUA UNIVERSITY, priority 2021, published 2024).

Biological target: PD-L1 on the surface of murine cells (MC38, B16, wild-type DC 2.4) (murine) (UniProt Q9EP73)
Experiment: FACS on MC38 cells, FITC-labeled goat anti-human secondary antibody

Chain of PD-L1 on the surface of murine cells (MC38, B16, wild-type DC 2.4) (murine) (Q9EP73 19-290): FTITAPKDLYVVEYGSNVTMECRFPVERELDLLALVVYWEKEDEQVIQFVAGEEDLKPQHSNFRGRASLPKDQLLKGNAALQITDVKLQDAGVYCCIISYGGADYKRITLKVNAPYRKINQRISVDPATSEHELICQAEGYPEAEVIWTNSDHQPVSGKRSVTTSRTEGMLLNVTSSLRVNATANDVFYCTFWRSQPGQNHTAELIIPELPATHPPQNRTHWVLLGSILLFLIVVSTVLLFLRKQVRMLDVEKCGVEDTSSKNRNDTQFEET

Substance isotype control IgG (antibody) has an MFI of 167 and a shift rate of the FITC positive signal relative to the NC group of 1.7%.
